Measurements reported in PMC12319226 (Frontiers in Bioinformatics, 2025).
Where a chain is given by its changes, count along the chain named. Values joined by “and” are separate entries in the source; they are usually repeats but may differ in a detail not shown here. Identical values can stand only once.

T1: fHbp m002392 (Neisseria meningitidis; fHbp …, chimera)
T1 chain: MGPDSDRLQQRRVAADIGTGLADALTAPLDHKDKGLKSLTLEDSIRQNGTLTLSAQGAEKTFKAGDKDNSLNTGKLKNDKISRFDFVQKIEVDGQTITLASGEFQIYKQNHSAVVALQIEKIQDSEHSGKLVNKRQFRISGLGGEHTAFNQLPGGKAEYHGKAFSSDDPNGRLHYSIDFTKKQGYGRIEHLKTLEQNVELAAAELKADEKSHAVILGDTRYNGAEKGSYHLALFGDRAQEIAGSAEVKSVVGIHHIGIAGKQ

T2: fHbp m002413 (Neisseria meningitidis, designed fHbp …, chimera)
T2 chain: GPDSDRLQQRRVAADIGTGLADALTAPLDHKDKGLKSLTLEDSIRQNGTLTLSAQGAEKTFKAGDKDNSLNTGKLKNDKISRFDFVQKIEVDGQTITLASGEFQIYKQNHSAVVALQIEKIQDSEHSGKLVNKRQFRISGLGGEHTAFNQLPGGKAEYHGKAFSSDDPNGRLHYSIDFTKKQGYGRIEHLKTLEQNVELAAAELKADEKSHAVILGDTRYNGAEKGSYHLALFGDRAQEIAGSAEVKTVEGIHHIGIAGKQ

T3: fHbp m001932 (Neisseria meningitidis; fHbp …, chimera)
T3 chain: T1 chain with N222G, S249T, V251N, G252A

T4: fHbp m002389 (Neisseria meningitidis; fHbp …, chimera)
T4 chain: T1 chain with V251N

T5: fHbp m002416 (Neisseria meningitidis, designed fHbp …, chimera)
T5 construct: also called fHbp 2,416; Round 2 best mutant
T5 chain: T2 chain with E250N

T6: fHbp m002335 (Neisseria meningitidis; fHbp …, chimera)
T6 chain: T1 chain with G223S, S249T, V251N

T7: fHbp m002415 (Neisseria meningitidis, designed fHbp …, chimera)
T7 chain: T2 chain with G251A

T8: fHbp m001607 (Neisseria meningitidis, fHbp …, point mutant)
T8 chain: T1 chain with Y221L, G223S, S249T, V251N

T9: fHbp m001659 (Neisseria meningitidis, fHbp …, point mutant)
T9 chain: T1 chain with Y221L, V251E, G252S

B1: mAb 1E6 (human) (antibody, V domains shown)
VH: EVQLVQSGAEVKKPGSSVKVSCKASGGTVIDYPITWVRQAPGQGLEWVGGFVPLFRTSNYGQKFQGRVTITADKSTSTASMELNSLTSEDTAIYYCARGDTAMGPFDYWGQGTLVTVSS
VL: SYVLTQPPSLSVAPGKTATLTCGGNNIAGKTVHWYQQRPGQAPVLVISYDSDRPSGIPERFSGSNSANTATLTISRVEAGDEADYYCQVWDRNSDHWVFGGGTKLTVL
notes: source: Expi293, purified (MabSelect SuRe, SEC); copies: 2 + 2
B2: chimeric antibody hJAR5 (antibody, V domains shown)
VH: QVQMQQPGAELVKPGASVKLSCKASGYTFISYWMHWVKQRPGRGLEWIGRIAPDTGIIYYNEKFKNKATLTVDTPSSTAYMQLNSLTSEDSAVYYCARYLKYDGSTYRFDYWGQGTTLTVSS
VL: DIVMTQAAPSVPVTPGESVSISCRSSKSLLHSNGNTYLFWFLQRPGQSPQLLIYRMSNLASGVPDRFSGSGSGTSFTLRISRVEAEDVGVYYCMQHLEYPYTFGGGTKLEIK
notes: also called hJAR5-2; humanized JAR5; source: Expi293, purified (MabSelect SuRe, SEC); copies: 2 + 2
B3: mAb 4B3 (human) (antibody, V domains shown)
VH: QVQLVQSGGGLVKPGGSLRLSCAASGFPFSSYYMSWIRQAPGKGLEWVSDINNSGNVKEYADFVKGRLTISRDNVKNSMYLHMNSLRVEDTAVYYCARNRGRFDVWGQGTLVTVSA
VL: EIVMTQSPGTLSLSPGETATLSCRASQMISSPFLAWYQQRRGQAPRLLIYGASTRATDTPDRFRGSGSGTDFILTISRLEPEDFAVYYCQYYDDSPFTFGQGTKLEIK
notes: also called 4B3-2; source: Expi293, purified (MabSelect SuRe, SEC); copies: 2 + 2
B4: chimeric antibody h12C1 (antibody, V domains shown)
VH: QVQLQESGPELVKPGASVKISCKASGYSFSDYNMSWVKQSNGKSLEWIGIIDPKYGTINYNQKFKGKATLTVDQASSTAYMQLNSLTSEDSAVYYCVRDYYGSSYFDYWGQGTTLTVSS
VL: DIVLTQSPSSIYASLGERVTLTCKASQDIHNYLNWFQQKPGKSPKTLIYRANRLVDGVPSRFSGGGSGQDYSLTISSLEFEDIGIYYCLQYDEFPPTFGGGTRLEIK
notes: also called humanized 12C1; source: Expi293, purified (MabSelect SuRe, SEC); copies: 2 + 2

Target: T1, fHbp m002392
Assay: BLI
Conditions: both partners purified

First: B1
Second: B3
The Kd of the first is 5.7-fold lower: 515 pM for the first, 2950 pM for the second.

With B4 the Kd was 892 pM.

First: B1
Second: B3
The koff of the first is 6.8-fold lower: 0.000157 s⁻¹ for the first, 0.00106 s⁻¹ for the second.

Binder B4 has a koff of 0.000212 s⁻¹.

B1 and B3 are within 1.5-fold of each other in kon: 305400 ± 1880 M⁻¹ s⁻¹ for the first, 359400 ± 1640 M⁻¹ s⁻¹ for the second.

In the case of B4, the kon is reported as 237100 ± 1550 M⁻¹ s⁻¹.

With B2 the Kd was 711 pM and 689 pM.

Target: T2, fHbp m002413
Assay: BLI
Conditions: both partners purified

Going from B1 to B2, the Kd rises from 660 pM to 1090 pM (1.7-fold). The first binds more tightly here.

B4 gave a Kd of 1100 pM.

B1 and B4 are within 1.5-fold of each other in koff: 0.000271 s⁻¹ for the first, 0.000237 s⁻¹ for the second.

Compared with B1, B4 is 1.9-fold lower in kon: 410700 ± 2050 M⁻¹ s⁻¹ for the first, 214700 ± 1140 M⁻¹ s⁻¹ for the second.

For B3, the Kd was 4570 pM and 3740 pM.

With B3 the koff was 0.00112 s⁻¹ and 0.00115 s⁻¹.

In the case of B3, the kon is reported as 245000 M⁻¹ s⁻¹ and 307000 M⁻¹ s⁻¹.

Target: T3, fHbp m001932
Assay: BLI
Conditions: both partners purified

Compared with B1, B2 is 12-fold higher in Kd: 303 pM for the first, 3730 pM for the second. The first binds more tightly here.

Going from B3 to B4, the Kd rises from 814 pM to 35200 pM (43-fold).

Going from B1 to B3, the koff rises from 0.000105 s⁻¹ to 0.000321 s⁻¹ (3.1-fold).

With B4 the koff was 0.0057 s⁻¹.

B1 and B3 are within 1.5-fold of each other in kon: 347000 ± 1890 M⁻¹ s⁻¹ for the first, 394600 ± 1740 M⁻¹ s⁻¹ for the second.

With B4 the kon was 161900 ± 1160 M⁻¹ s⁻¹.

Target: T4, fHbp m002389
Assay: BLI
Conditions: both partners purified

B1 and B2 are within 1.5-fold of each other in Kd: 818 pM for the first, 772 pM for the second.

For B4, the Kd was 1160 pM.

B1 and B4 are within 1.5-fold of each other in koff: 0.000272 s⁻¹ for the first, 0.000257 s⁻¹ for the second.

First: B1
Second: B4
The kon of the first is 1.5-fold higher: 332200 ± 1430 M⁻¹ s⁻¹ for the first, 220700 ± 1060 M⁻¹ s⁻¹ for the second.

With B3 the Kd was 4010 pM and 3220 pM.

In the case of B3, the koff is reported as 0.000912 s⁻¹ and 0.00101 s⁻¹.

With B3 the kon was 227000 M⁻¹ s⁻¹ and 315000 M⁻¹ s⁻¹.

Target: T5, fHbp m002416
Assay: BLI
Conditions: both partners purified

Compared with B1, B3 is 11-fold higher in koff: 0.000104 s⁻¹ for the first, 0.00113 s⁻¹ for the second.

Work on B4 yielded a koff of 5.89e-05 s⁻¹.

B1 and B3 are within 1.5-fold of each other in kon: 322000 ± 2420 M⁻¹ s⁻¹ for the first, 296100 ± 925 M⁻¹ s⁻¹ for the second.

In the case of B4, the kon is reported as 201100 ± 1150 M⁻¹ s⁻¹.

Target: T6, fHbp m002335
Assay: BLI
Conditions: both partners purified

First: B1
Second: B2
The Kd of the first is 6.4-fold lower: 137 pM for the first, 883 pM for the second. The first binds more tightly here.

Going from B3 to B4, the Kd falls from 5080 pM to 235 pM (22-fold).

Going from B1 to B3, the koff rises from 0.000102 s⁻¹ to 0.00109 s⁻¹ (11-fold).

B4 was tested, and the koff was 8.01e-05 s⁻¹.

Compared with B1, B3 is 3.5-fold lower in kon: 744000 ± 3230 M⁻¹ s⁻¹ for the first, 214100 ± 1500 M⁻¹ s⁻¹ for the second.

Work on B4 yielded a kon of 340700 ± 1750 M⁻¹ s⁻¹.

Target: T7, fHbp m002415
Assay: BLI
Conditions: both partners purified

B1 and B2 are within 1.5-fold of each other in Kd: 831 pM for the first, 664 pM for the second.

First: B3
Second: B4
The Kd of the first is 18-fold lower: 3780 pM for the first, 66700 pM for the second. The first binds more tightly here.

Going from B1 to B3, the koff rises from 0.000302 s⁻¹ to 0.00101 s⁻¹ (3.3-fold).

Work on B4 yielded a koff of 0.00939 s⁻¹.

B1 and B3 are within 1.5-fold of each other in kon: 363300 ± 1200 M⁻¹ s⁻¹ for the first, 267700 ± 1540 M⁻¹ s⁻¹ for the second.

Binder B4 has a kon of 141000 ± 2240 M⁻¹ s⁻¹.

Target: T8, fHbp m001607
Assay: BLI
Conditions: both partners purified

Compared with B1, B4 is 140-fold higher in Kd: 242 pM for the first, 32900 pM for the second.

Compared with B1, B4 is 100-fold higher in koff: 0.000117 s⁻¹ for the first, 0.012 s⁻¹ for the second.

B1 and B4 are within 1.5-fold of each other in kon: 484000 ± 5230 M⁻¹ s⁻¹ for the first, 366000 ± 13300 M⁻¹ s⁻¹ for the second.

Target: T9, fHbp m001659
Assay: BLI
Conditions: both partners purified

First: B1
Second: B4
The Kd of the first is 2.4-fold lower: 716 pM for the first, 1750 pM for the second.

First: B1
Second: B4
The koff of the first is 1.9-fold lower: 0.000306 s⁻¹ for the first, 0.000578 s⁻¹ for the second.

B1 and B4 are within 1.5-fold of each other in kon: 427300 ± 1410 M⁻¹ s⁻¹ for the first, 330000 ± 3440 M⁻¹ s⁻¹ for the second.
